# Source: patent US20190106487A1 (Sanofi, published 2019)
# T1: human IL-1RAcP on 293T/17-FR cells (human, UniProt Q9NPH3 21-570)
# T1 sequence (looked up): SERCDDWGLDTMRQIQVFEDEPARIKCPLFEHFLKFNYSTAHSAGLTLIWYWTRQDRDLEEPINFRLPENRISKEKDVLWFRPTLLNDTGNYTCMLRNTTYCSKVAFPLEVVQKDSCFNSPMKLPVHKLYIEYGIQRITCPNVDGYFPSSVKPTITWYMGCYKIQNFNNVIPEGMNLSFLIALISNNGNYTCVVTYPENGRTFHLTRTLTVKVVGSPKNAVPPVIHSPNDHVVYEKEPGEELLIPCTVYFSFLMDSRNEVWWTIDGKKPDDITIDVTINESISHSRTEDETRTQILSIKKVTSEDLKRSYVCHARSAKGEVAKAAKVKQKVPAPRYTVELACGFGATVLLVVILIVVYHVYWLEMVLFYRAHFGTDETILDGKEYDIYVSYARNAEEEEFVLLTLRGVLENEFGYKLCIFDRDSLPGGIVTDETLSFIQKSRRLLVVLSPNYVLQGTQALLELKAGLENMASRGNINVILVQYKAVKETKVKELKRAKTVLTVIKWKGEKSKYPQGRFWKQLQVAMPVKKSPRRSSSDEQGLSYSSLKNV
# T2: rhIL-1RAcP/Fc Chimera (human, UniProt Q9NPH3 21-359)
# T2 construct: also called P013_03; P013-03
# T2 sequence (looked up): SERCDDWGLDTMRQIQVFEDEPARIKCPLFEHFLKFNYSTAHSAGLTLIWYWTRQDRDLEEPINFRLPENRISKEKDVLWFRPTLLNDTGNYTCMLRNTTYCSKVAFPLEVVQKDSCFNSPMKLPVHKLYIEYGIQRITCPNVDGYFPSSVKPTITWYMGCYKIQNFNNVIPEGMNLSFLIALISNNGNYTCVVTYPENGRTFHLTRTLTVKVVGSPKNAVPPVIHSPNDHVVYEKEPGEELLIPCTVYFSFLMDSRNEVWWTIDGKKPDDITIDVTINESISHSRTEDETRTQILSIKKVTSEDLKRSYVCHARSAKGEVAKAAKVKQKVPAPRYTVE
# Assays:
# [1] = molecular target: T1, human IL-1RAcP on 293T/17-FR cells; assay: cell-based or functional assay
# rhIL-1RAcP/Fc Chimera [2] = molecular target: T2, rhIL-1RAcP/Fc Chimera; assay: ELISA, primary supernatant, coated hu-IL-1RAcP-Fc
# Source text: Microtiter plates were coated IL-1RACP and/or IL12Rβ1 protein (recombinant Fc chimeric conjugates of human IL-1RACP or IL12Rβ1). After a blocking process, specific antibodies from B-cell supernatants bind to the targets and are then detected by a POD-labeled anti-rabbit IgG antibody. The IL12Rβ1 binding was used as a counterscreen. IL-1RACP protein was tagged with a linker, huFc and His like the IL12Rβ1 protein. Antibodies which bind to the tag were positive in both assays, whereas antigen specific antibodies just bound to IL-1RACP and not to IL12Rβ1.
# 12.5 μL 0.5 μg/mL IL-1RACP protein in PBS was transferred to a microtiter plate, incubated and washed 3× with Wash Buffer. 90 μL Block Buffer was added to each well, incubated and washed. 12.5 μl Standard Antibody (rabbit mAb against IL-1RAcP, anti IL12Rbeta1 antibody: IL-12Rbeta1 antibody; GeneTex; Cat. No. GTX103917) or sample diluted in ELISA buffer was added, incubated and washed. 12.5 μl 1:5000 POD-Antibody (Anti-rabbit IgG, peroxidase-linked species-specific Fab2 fragment (from donkey) (ECL); assay dilution: 1:5000) in Elisa Buffer was added, incubated and washed. 15 μl TMB was added and 15 μl HCl was added after sufficient development. Absorbance (Optical Density O.D.) was read at 450 nm/620 nm.
# rhIL-1RAcP/Fc Chimera [3] = molecular target: T2, rhIL-1RAcP/Fc Chimera; assay: ELISA, recombinant purified mAb
Binder,"functional reporter gene assay (% inhibition), 0.04 µg/mL mAb [1]","functional reporter gene assay (% inhibition), 0.2 µg/mL mAb [1]","functional reporter gene assay (% inhibition), 1 µg/mL mAb [1]","functional reporter gene assay (% inhibition), 5 µg/mL mAb [1]","primary supernatant functional assay (% inh.), NF-kB luciferase reporter [1]",hu-IL1RaP ELISA (OD) (rhIL-1RAcP/Fc Chimera [2]),EC50 (rhIL-1RAcP/Fc Chimera [3])
"P013.S.02.B.B01 (antibody, V domains shown, rabbit monoclonal antibody; also called P013.A.00088.A11) VH: QSLEESGGRLVTPGTPLTLTCTVSGFSLSGYAMSWVRQAPGKGLEWIGIIYAGSGGTYYASWVKGRFTISKTSTTVDLKITSLTTEDTATYFCARAVPDDSAGKKLWGQGTLVTVSS VL: DIVMTQTPASVEAAVGGTITINCQASENIYSSLAWYQQKPGQPPKLLIYDASTLASGVSSRFKGSGSGTQFTLTISGVQSDDAATYYCQSYYCSVSSSCGYGFGGGTEVVVK",24%,39%,75%,94%,95%,3.6 OD,
"P013.S.01.B.F03 (antibody, V domains shown, rabbit monoclonal antibody; also called P013.A.00025.F02) VH: LEQSGGGAEGGLVKPGGSLELCCKASGFSLGSSYWICWVRQAPGKGLEWIGCIYAGSSGITYYASWVSGRFTLSRDIDQSTGCLQLNSLTAADTAMYYCARDIYASTSGYDLWGQGTLVTVSS VL: ALVMTQTPSPVSAAVGGTVTINCQASEDIYSNLAWFQQKPGQPPKLLIYQASTLASGVPSRFSGSGSGTEFTLTISGLQSDDAAAYYCLGVCTYIGADNTLYNTFGGGTEVVVK",26%,59%,87%,94%,102%,3.4 OD,0.44 µg/mL
"P013.S.01.B.G02 (antibody, V domains shown, rabbit monoclonal antibody; also called P013.A.00085.B11) VH: QSVEESGGRLVTPGTPLTLTCTVSGFSLSSYYMSWVRQAPGKGLEWIGYIYAAGPITYYATWAKGRFTISKTSTTVDLKITSPTTEDTATYFCVRDGSGSGTYGYNGMDLWGPGTLVTVSS VL: AYDMTQTPASVEAAVGGTVNIKCQASQSISNWLAWYQQKPGQRPKLLIYRASTLASGVSSRFKGSGSGTQFTLTISGVESADAATYYCQQGASTTDVDNVFGGGTEVVVK",43%,52%,41%,72%,71%,3.7 OD,0.049 µg/mL
"P013.S.02.B.A01 (antibody, V domains shown, rabbit monoclonal antibody; also called P013.A.00087.A07) VH: QSVEESGGRLVTPGTPLTLTCTVSGFSLSSYYMSWVRQAPGKGLEWIGYIYAAGPITYYATWAKGRFTISKTSTTVDLKITSPTTEDTATYFCVRDGSGSGTYGYNGMDLWGPGTLVTVSS VL: AYDMTQTPASVEAAVGGTVTIKCQASQSISNWLAWYQQKPGQRPKLLIYRASTLASGVSSRFKGSGSGTQFTLTISGVESADAATYYCQQGASTTDVDNVFGGGTEVVVK",7%,45%,67%,87%,67%,3.8 OD,0.073 µg/mL
"P013.S.01.B.D02 (antibody, V domains shown, rabbit monoclonal antibody; also called P013.A.00022.E06) VH: LEQSGGGAEGGLVKPGGSLELCCKASGFSLTTNYWICWVRQAPGKGLEWIGCIYANSVGSTYYASWVNGRFTLSRDIDQSTGCLQLNSLTAADTAMYYCARVDPGYSFDAFDPWGPGTLVTVSS VL: ALVMTQTPSPVSAAVGGTVTINCQASEDIYSNLAWFQQKPGQPPKLLIYRASTLASGVPSRFSGSGSGTEFTLTISALQSDDAATYYCLGVRTYFNTLNNSFGGGTEVVVK",44%,68%,88%,92%,99%,4 OD,
"P013.S.01.B.D05 (antibody, V domains shown, rabbit monoclonal antibody; also called P013.A.00085.G03) VH: EQSGGGAEGGLVKPGGSLELYCKASGFSLSSDAWICWVRQAPGKGLEWIGCIYAGSASNTYYATWVNGRFTLSRDIAQSTGCLQLNSLTAADTAMYYCARDRGYDDYGDITRLDLWGQGTLVTVSS VL: ALVLTQTPSPVSAAVGGTVTINCQASEDIYSNLAWFQQKPGQPPKLLIYRASTLASGVPSRFSGSGSGTEFTLTISGLQSDDAATYYCLGVYTYLSDLFFVFGGGTEVVVK",26%,66%,77%,62%,93%,3.4 OD,

# The remaining lines, values ahead:
"functional reporter gene assay (% inhibition), 0.04 µg/mL mAb [1]","functional reporter gene assay (% inhibition), 0.2 µg/mL mAb [1]","functional reporter gene assay (% inhibition), 1 µg/mL mAb [1]","functional reporter gene assay (% inhibition), 5 µg/mL mAb [1]","primary supernatant functional assay (% inh.), NF-kB luciferase reporter [1]",hu-IL1RaP ELISA (OD) (rhIL-1RAcP/Fc Chimera [2]),EC50 (rhIL-1RAcP/Fc Chimera [3]),Binder
7%,26%,35%,52%,66%,3.2 OD,,"P013.S.02.B.C05 (antibody, V domains shown, rabbit monoclonal antibody; also called P013.A.00085.F10) VH: QSLEESGGRLVTPGTPLTLSCTASGFSLSTYYMSWVRQAPGKGLEWIGYMHVGGFPVYASWAKGRFTISKTSTTVDLKITSPTIEDTATYFCARDFGPPNWTLDLWGQGTLVTVSS VL: DVVMTQTPASVEAAVGGTVTIKCQASQSISSYCSWYQQKPGQPPKLLIYRASTLESGVPSRFKGSGSGTEFTLTISDLESADAATYYCQSSYYDLLGNGFGGGTEVVVK"
-1%,0%,4%,-18%,27%,2.9 OD,,"P013.S.02.B.G04 (antibody, V domains shown, rabbit monoclonal antibody; also called P013.A.00015.A11) VH: QSLEESGGRLVTPGTPLTLTCTVSGFSLSRCAMIWVRQAPGKGLEWIGFIGRGGSTWYASWVNGRFTISKTSTTVDLKITSPTTEDTATYFCARDGDYSDYYTFDLWGQGTLVTVSS VL: DVVMTQTPASVSERVGGTVTIKCQASQSIGSNLAWYQQKPGQPPKLLIYGASNLESGVPSRFSGSGSGTEFTLSISGVQSADAATYYCQCSGYDTTGVFPFGGGSEVVVK"
45%,59%,80%,93%,76%,3.4 OD,,"P013.S.01.B.F02 (antibody, V domains shown, rabbit monoclonal antibody; also called P013.A.00043.D08) VH: QEQLVESGGGLVQPEGSLTLTCTASGFSFSSNYWMCWVRQAPGKGLEWIACIYTGGSGVTYYASWAKGRFTLSKTSSTTVTLQVTSLTAADTATYFCARDLVVVTSFNLWGQGTLVTVSS VL: ALMMTQTPSPVSAAVGGTVTINCQASEDIYSNLAWYQQKPGQPPKLLIYSASTLASGVPSRFSGSGSGTEFTLTISGVQSDDAATYYCLGVCTDISVDDVYNSFGGGTEVVVK"
28%,49%,59%,60%,43%,3.5 OD,0.104 µg/mL,"P013.S.01.B.H03 (antibody, V domains shown, rabbit monoclonal antibody; also called P013.A.00045.A02) VH: QSVEESGGRLVTPGTPLTLTCTVSGFSLSSYYMSWVRQAPGKGLEWIGYIYAAGPITYYATWAKGRFTISKTSTTVDLKITSPTTEDTATYFCVRDGSGSGTYGYNGMDLWGPGTLVTVSS VL: AYDMTQTPASVEAAVGGTVNIKCQASQSISNWLAWYQQKPGQPPKLLIYRASTLASGVSSRFKGSGSGTQFTLTISGVESADAATYYCQQGASTTDVDNVFGGGTEVVVK"
